Experimental data published in article PMC6018666, “Structural basis for terminal loop recognition and stimulation of pri-miRNA-18a processing by hnRNP A1”.

Tests used:
UP1 (hnRNP A1 RRM1-RRM2) [1] = molecular target: T1, UP1 (hnRNP A1 RRM1-RRM2) (UniProt P09651 1-196); assay: ITC; not fitted by one-site model; ITC: 20 mM Na phosphate pH 6.5, 100 mM NaCl, no DTT, 25 C; EMSA: 100 mM KCl, 20% glycerol, 0.2 mM EDTA, 100 mM Tris pH 8.0, 0.5 mM DTT, 0.5 mM ATP, 20 mM creatine phosphate, 3.2 mM MgCl2, 4 C; footprint: 12 mM Tris-HCl pH 7.5, 48 mM NaCl, 1.2 mM MgCl2, 37 C; conditions: protein: recombinant; tags: His tag removed by TEV; hairpin
UP1 (hnRNP A1 RRM1-RRM2) [2] = molecular target: T1, UP1 (hnRNP A1 RRM1-RRM2); assay: ITC; N=1.07; ITC: 20 mM Na phosphate pH 6.5, 100 mM NaCl, no DTT, 25 C; EMSA: 100 mM KCl, 20% glycerol, 0.2 mM EDTA, 100 mM Tris pH 8.0, 0.5 mM DTT, 0.5 mM ATP, 20 mM creatine phosphate, 3.2 mM MgCl2, 4 C; footprint: 12 mM Tris-HCl pH 7.5, 48 mM NaCl, 1.2 mM MgCl2, 37 C; conditions: protein: recombinant, tags: His tag removed by TEV
UP1 (hnRNP A1 RRM1-RRM2) [3] = molecular target: T1, UP1 (hnRNP A1 RRM1-RRM2); assay: ITC; N=0.98; ITC: 20 mM Na phosphate pH 6.5, 100 mM NaCl, no DTT, 25 C; EMSA: 100 mM KCl, 20% glycerol, 0.2 mM EDTA, 100 mM Tris pH 8.0, 0.5 mM DTT, 0.5 mM ATP, 20 mM creatine phosphate, 3.2 mM MgCl2, 4 C; footprint: 12 mM Tris-HCl pH 7.5, 48 mM NaCl, 1.2 mM MgCl2, 37 C; conditions: protein: recombinant; tags: His tag removed by TEV; single strand
UP1 (hnRNP A1 RRM1-RRM2) [4] = molecular target: T1, UP1 (hnRNP A1 RRM1-RRM2); assay: EMSA; ITC: 20 mM Na phosphate pH 6.5, 100 mM NaCl, no DTT, 25 C; EMSA: 100 mM KCl, 20% glycerol, 0.2 mM EDTA, 100 mM Tris pH 8.0, 0.5 mM DTT, 0.5 mM ATP, 20 mM creatine phosphate, 3.2 mM MgCl2, 4 C; footprint: 12 mM Tris-HCl pH 7.5, 48 mM NaCl, 1.2 mM MgCl2, 37 C; conditions: protein: recombinant; tags: His tag removed by TEV; label: internal radiolabel
hnRNP A1 RRM1 [5] = molecular target: T2, hnRNP A1 RRM1 (UniProt P09651 1-97); assay: as above; conditions: protein: recombinant; tags: His tag removed by TEV; label: internal radiolabel
hnRNP A1 RRM2 [6] = molecular target: T3, hnRNP A1 RRM2 (UniProt P09651 94-196); assay: as above; conditions: protein: recombinant; tags: His tag removed by TEV; label: internal radiolabel
UP1 (hnRNP A1 RRM1-RRM2) [7] = molecular target: T1, UP1 (hnRNP A1 RRM1-RRM2); assay: ITC; N=1.08; ITC: 20 mM Na phosphate pH 6.5, 100 mM NaCl, no DTT, 25 C; EMSA: 100 mM KCl, 20% glycerol, 0.2 mM EDTA, 100 mM Tris pH 8.0, 0.5 mM DTT, 0.5 mM ATP, 20 mM creatine phosphate, 3.2 mM MgCl2, 4 C; footprint: 12 mM Tris-HCl pH 7.5, 48 mM NaCl, 1.2 mM MgCl2, 37 C; conditions: protein: recombinant; tags: His tag removed by TEV; single strand
UP1 (hnRNP A1 RRM1-RRM2) [8] = molecular target: T1, UP1 (hnRNP A1 RRM1-RRM2); assay: ITC; N=1.06; ITC: 20 mM Na phosphate pH 6.5, 100 mM NaCl, no DTT, 25 C; EMSA: 100 mM KCl, 20% glycerol, 0.2 mM EDTA, 100 mM Tris pH 8.0, 0.5 mM DTT, 0.5 mM ATP, 20 mM creatine phosphate, 3.2 mM MgCl2, 4 C; footprint: 12 mM Tris-HCl pH 7.5, 48 mM NaCl, 1.2 mM MgCl2, 37 C; conditions: protein: recombinant; tags: His tag removed by TEV; single strand
UP1 (hnRNP A1 RRM1-RRM2) [9] = molecular target: T1, UP1 (hnRNP A1 RRM1-RRM2); assay: ITC; N=1.35; ITC: 20 mM Na phosphate pH 6.5, 100 mM NaCl, no DTT, 25 C; EMSA: 100 mM KCl, 20% glycerol, 0.2 mM EDTA, 100 mM Tris pH 8.0, 0.5 mM DTT, 0.5 mM ATP, 20 mM creatine phosphate, 3.2 mM MgCl2, 4 C; footprint: 12 mM Tris-HCl pH 7.5, 48 mM NaCl, 1.2 mM MgCl2, 37 C; conditions: protein: recombinant; tags: His tag removed by TEV; hairpin
hnRNP A1 RRM2 [10] = molecular target: T3, hnRNP A1 RRM2; assay: ITC; N=1.09; text gives 6.9; ITC: 20 mM Na phosphate pH 6.5, 100 mM NaCl, no DTT, 25 C; EMSA: 100 mM KCl, 20% glycerol, 0.2 mM EDTA, 100 mM Tris pH 8.0, 0.5 mM DTT, 0.5 mM ATP, 20 mM creatine phosphate, 3.2 mM MgCl2, 4 C; footprint: 12 mM Tris-HCl pH 7.5, 48 mM NaCl, 1.2 mM MgCl2, 37 C; conditions: protein: recombinant; tags: His tag removed by TEV; single strand
UP1 (hnRNP A1 RRM1-RRM2) [11] = molecular target: T1, UP1 (hnRNP A1 RRM1-RRM2); assay: ITC; N=0.75; ITC: 20 mM Na phosphate pH 6.5, 100 mM NaCl, no DTT, 25 C; EMSA: 100 mM KCl, 20% glycerol, 0.2 mM EDTA, 100 mM Tris pH 8.0, 0.5 mM DTT, 0.5 mM ATP, 20 mM creatine phosphate, 3.2 mM MgCl2, 4 C; footprint: 12 mM Tris-HCl pH 7.5, 48 mM NaCl, 1.2 mM MgCl2, 37 C; conditions: protein: recombinant; tags: His tag removed by TEV; single strand
hnRNP A1 RRM1 [12] = molecular target: T2, hnRNP A1 RRM1; assay: ITC; N=1.01; ITC: 20 mM Na phosphate pH 6.5, 100 mM NaCl, no DTT, 25 C; EMSA: 100 mM KCl, 20% glycerol, 0.2 mM EDTA, 100 mM Tris pH 8.0, 0.5 mM DTT, 0.5 mM ATP, 20 mM creatine phosphate, 3.2 mM MgCl2, 4 C; footprint: 12 mM Tris-HCl pH 7.5, 48 mM NaCl, 1.2 mM MgCl2, 37 C; conditions: protein: recombinant; tags: His tag removed by TEV; single strand
UP1(R75E/R88A) = UP1(R75E/R88A) (UniProt P09651 1-196, R75E;R88A); assay: ITC; N=1.08; ITC: 20 mM Na phosphate pH 6.5, 100 mM NaCl, no DTT, 25 C; EMSA: 100 mM KCl, 20% glycerol, 0.2 mM EDTA, 100 mM Tris pH 8.0, 0.5 mM DTT, 0.5 mM ATP, 20 mM creatine phosphate, 3.2 mM MgCl2, 4 C; footprint: 12 mM Tris-HCl pH 7.5, 48 mM NaCl, 1.2 mM MgCl2, 37 C; conditions: protein: recombinant; tags: His tag removed by TEV; single strand
UP1 (hnRNP A1 RRM1-RRM2) [13] = molecular target: T1, UP1 (hnRNP A1 RRM1-RRM2); assay: ITC; N=1.01; ITC: 20 mM Na phosphate pH 6.5, 100 mM NaCl, no DTT, 25 C; EMSA: 100 mM KCl, 20% glycerol, 0.2 mM EDTA, 100 mM Tris pH 8.0, 0.5 mM DTT, 0.5 mM ATP, 20 mM creatine phosphate, 3.2 mM MgCl2, 4 C; footprint: 12 mM Tris-HCl pH 7.5, 48 mM NaCl, 1.2 mM MgCl2, 37 C; conditions: protein: recombinant; tags: His tag removed by TEV; single strand
UP1(R75E/R88E) = UP1(R75E/R88E) (UniProt P09651 1-196, R75E;R88E); assay: ITC; N=1.1; ITC: 20 mM Na phosphate pH 6.5, 100 mM NaCl, no DTT, 25 C; EMSA: 100 mM KCl, 20% glycerol, 0.2 mM EDTA, 100 mM Tris pH 8.0, 0.5 mM DTT, 0.5 mM ATP, 20 mM creatine phosphate, 3.2 mM MgCl2, 4 C; footprint: 12 mM Tris-HCl pH 7.5, 48 mM NaCl, 1.2 mM MgCl2, 37 C; conditions: protein: recombinant; tags: His tag removed by TEV; single strand
Chain of UP1(R75E/R88E) (P09651 1-196 R75E/R88E): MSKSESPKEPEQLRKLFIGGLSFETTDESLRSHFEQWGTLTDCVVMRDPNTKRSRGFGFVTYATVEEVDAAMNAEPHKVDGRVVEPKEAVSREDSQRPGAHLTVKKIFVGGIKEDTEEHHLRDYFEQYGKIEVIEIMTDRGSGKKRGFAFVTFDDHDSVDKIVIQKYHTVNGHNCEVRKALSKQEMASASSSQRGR

T1 sequence (P09651 1-196): as the sequence (P09651 1-196 R75E/R88E) above, with E75R, E88R counted along it
T3 sequence (P09651 94-196): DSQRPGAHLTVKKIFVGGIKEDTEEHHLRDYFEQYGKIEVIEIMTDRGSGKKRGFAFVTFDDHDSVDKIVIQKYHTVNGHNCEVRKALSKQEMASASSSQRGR
T2 sequence (P09651 1-97): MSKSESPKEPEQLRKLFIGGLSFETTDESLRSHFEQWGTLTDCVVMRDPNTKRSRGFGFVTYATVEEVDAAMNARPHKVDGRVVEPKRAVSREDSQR
Chain of UP1(R75E/R88A) (P09651 1-196 R75E/R88A): as the sequence (P09651 1-196 R75E/R88E) above, with E88A counted along it

B1: 17-mer (structured_RNA)
RNA: GGUGAAGUAGAUUAGCC
binding result (UP1 (hnRNP A1 RRM1-RRM2) [1]): binds

B2: 10-mer (ssRNA)
RNA: UAGAUUAGCA
Kd (UP1 (hnRNP A1 RRM1-RRM2) [2]; single strand): 19.1 ± 6.73 nM

B3: 12-mer-mut3 (ssRNA)
RNA: UUUAGAUUAGCA
Kd (UP1 (hnRNP A1 RRM1-RRM2) [3]): 8.33 ± 1.35 nM

B4: pri-mir-18a terminal loop RNA (structured_RNA)
RNA: GUGAAGUAGAUUAGC
binding result (UP1 (hnRNP A1 RRM1-RRM2) [4]): binds | binding result (hnRNP A1 RRM1 [5]): no binding | binding result (hnRNP A1 RRM2 [6]): no binding

B5: 12-mer-mut2 (ssRNA)
RNA: AGUAGAUUUUCA
Kd (UP1 (hnRNP A1 RRM1-RRM2) [7]): 330 ± 26.5 nM

B6: 12-mer-mut1 (ssRNA)
RNA: AGUUUAUUAGCA
Kd (UP1 (hnRNP A1 RRM1-RRM2) [8]): 154 ± 11 nM

B7: 17-mer(A35C) (structured_RNA)
RNA: GGUGAAGUAGAUUCGCC
Kd (UP1 (hnRNP A1 RRM1-RRM2) [2]; hairpin): 3100 ± 190 nM

B8: pri-mir-18a 71-mer (structured_RNA)
RNA: GGUUCUAAGGUGCAUCUAGUGCAGAUAGUGAAGUAGAUUAGCAUCUACUGCCCUAAGUGCUCCUUCUGGCC
Kd (UP1 (hnRNP A1 RRM1-RRM2) [9]): 148 ± 8.9 nM

B9: 7-mer (ssRNA)
RNA: AGUAGAU
Kd (hnRNP A1 RRM2 [10]): 6800 ± 140 nM | Kd (UP1 (hnRNP A1 RRM1-RRM2) [11]): 3400 ± 120 nM | Kd (hnRNP A1 RRM1 [12]): 20400 ± 1060 nM

B10: 12-mer (ssRNA)
RNA: AGUAGAUUAGCA
Kd (UP1(R75E/R88A)): 19 ± 2.05 nM | Kd (UP1 (hnRNP A1 RRM1-RRM2) [13]): 15.5 ± 3.4 nM | Kd (UP1(R75E/R88E)): 40.1 ± 4.4 nM
